In patent US8008547B2, “Glyphosate-N-acetyltransferase (GAT) genes” (E.I. duPont de Nemours, priority 2000, dated 2011) one finds Kcat and Km data, which are given here for 20 molecules.

A short description of this data set: Standard protocol for determination of kcat and KM (continuous spectrophotometric assay, Acetyl CoA hydrolysis at 235 nm). In kind it is biochemical. The following applies: purified protein, about 23° C., 0.2 mM acetyl CoA; for Kcat: 20 mM HEPES pH 6.8, 10% ethylene glycol; for Km: pH 6.8, glyphosate 0.125 to 10 mM. As to the method:
KM was calculated from the initial reaction rates obtained from concentrations of glyphosate ranging from 0.125 to 10 mM, using the Lineweaver-Burke transformation of the Michaelis-Menten equation. kcat/KM was determined by dividing the value determined for kcat by the value determined for KM.
Using this methodology, kinetic parameters for a number of GAT polypeptides exemplified herein were determined. For example, the kcat, KM and kcat/KM for the GAT polypeptide corresponding to SEQ ID NO:445 have been determined to be 322 min^−1, 0.5 mM and 660 mM^−1 min^−1, respectively, using the assay conditions described above. The kcat, KM and kcat/KM for the GAT polypeptide corresponding to SEQ ID NO:457 have been determined to be 118 min^−1, 0.1 mM and 1184 mM^−1 min^−1, respectively, using the assay conditions described above. The kcat, KM and kcat/KM for the GAT polypeptide corresponding to SEQ ID NO:300 have been determined to be 296 min^−1, 0.65 mM and 456 mM^−1 min^−1, respectively, using the assay conditions described above. One of skill in the art can use these numbers to confirm that a GAT activity assay is generating kinetic parameters for a GAT suitable for comparison with the values given herein. For example, the conditions used to compare the activity of GATs should yield the same kinetic constants for SEQ ID NO: 300, 445 and 457 (within normal experimental variance) as those reported herein, when the conditions are used to compare a test GAT with the GAT polypeptides exemplified herein. Kinetic parameters for a number of GAT polypeptide variants were determined according to this methodology and are provided in Table 3.

B1: SEQ ID NO: 414: GAT polypeptide (protein)
chain: MIEVKPINAEDTYEIRHRILRPNQPLEACMYETDLLGGTFHLGGYYRGKLVCIASFHKAEHSELEGQKQYQLRGMATLDGYREQKAGSTLIRHAEELLRKKGADLLWCNARTSVSGYYEKLGFSEQGEVYDIPPVGPHILMYKKLT
modifications: 6F1
notes: GAT polypeptide
Usually Km stands for the concentration of substrate that gives half-maximal velocity. For the molecule B1, the Kcat is 0.168 s⁻¹ and the Km was determined as 1800 µM.

B2: SEQ ID NO: 401: GAT polypeptide (protein)
chain: MIEVKPINAEDTYEIRHRVLRPNQPLEACMYETDLLGGTFHLGGYYRGKLISIASFHQAEHPELEGQKPYQLRGMATLEGYREQKAGSTLIRHAEELLRKKGADLLWCNARTSASGYYKKLGFSEQGEIYDIPPIGPHILMYKKLT
modifications: 6_2H1
notes: GAT polypeptide
Consider B2, for which the Kcat amounted to 0.443 s⁻¹ and the Km is 900 µM.

B3: SEQ ID NO: 403: GAT polypeptide (protein)
chain: MIEVKPINAEDTYEIRHRILRPNQPLEACMYETDLLGGTFHLGGYYRGKLISIASFHQAEHSELEGQKQYQLRGMATLEGYREQKAGSTLIRHAEELLRKKGADLLWCNARTSASGYYKKLGFSEQGEVYDIPPVGPHILMYKKLT
modifications: 6_3G3
notes: GAT polypeptide
Consider B3, for which the Kcat came out at 0.865 s⁻¹ and the Km is 1000 µM.

B4: SEQ ID NO: 402: GAT polypeptide (protein)
chain: MIEIKPINAEDTYEIRHRILRPNQPLEACMYETDLLGGTFHLGGYYRGKLISIASFHQAEHPELEGQKQYQLRGMATLEGYREQKAGSTLIRHAEELLRKKGADLLWCNARTSASGYYKKLGFSEQGEVYDIPPVGPHILMYKKLT
modifications: 6_3D6
notes: GAT polypeptide
Regarding B4, the Kcat was determined as 0.695 s⁻¹ and the Km was 1000 µM.

B5: SEQ ID NO: 404: GAT polypeptide (protein)
chain: MIEVKPINAEDTYEIRHRILRPNQPLEACMYETDLLGGTFHLGGYYRGKLISIASFHQAEHPELEGQKQYQLRGMATLEEYREQKAGSTLIRHAEELLRKKGADLLWCNARTSASGYYKKLGFSEQGEVYDIPPVGPHILMYKKLT
modifications: 6_3H2
notes: GAT polypeptide
Regarding B5, the Kcat stood at 0.953 s⁻¹ and the Km is 1000 µM.

B6: SEQ ID NO: 411: GAT polypeptide (protein)
chain: MIEVKPINAEDTYEIRHRILRPNQPLEACMYETDLLRGAFHLGGYYRGKLISIASFHQAEHSELEGQKQYQLRGMATLEGYREQKAGSTLIRHAEELLRKKGADLLWCNARTSASGYYKKLGFSEQGGVYDIPPVGPHILMYKKLT
modifications: 6_7D1
notes: GAT polypeptide
For the molecule B6, the Kcat is 0.328 s⁻¹ and the Michaelis-Menten constant (Km) was determined as 500 µM.

B7: SEQ ID NO: 416: GAT polypeptide (protein)
chain: MIEVKPINAEDTYEIRHRILRPNQPLEACKYETDLLGGTFHLGGYYRGKLISIASFHQAEHPELEGQKQYQLRGMATLEGYREQKAGSTLIRHAEELLRKKGADLLWCNARTSASGYYKKLGFSEQGGVYDIPPIGPHILMYKKLT
modifications: 7_2A10
notes: GAT polypeptide
With B7, the Kcat amounted to 0.242 s⁻¹ and the Michaelis constant (Km) was found to be 800 µM.

B8: SEQ ID NO: 413: GAT polypeptide (protein)
chain: MIEVKPINAEDTYEIRHRILRPNQPLEACKYETDLLGGTLHLGGYYRGKLISIASFHQAEHSELEGQKQYQLRGMATLEGYREQKAGSTLIRHAEELLRKKGADLLWCNARTSASGYYKKLGFSEQGEVYDIPPVGPHILMYKKLT
modifications: 6_9G11
notes: GAT polypeptide
B8: the Kcat is 1.31 s⁻¹ and the Michaelis-Menten constant (Km) turned out to be 1300 µM.

B9: SEQ ID NO: 410: GAT polypeptide (protein)
chain: MIEVKPINAEDAYEIRHRILRPNQPLEACKYETDLLGGTFHLGGYYRGKLISIASFHQAEHSELEGQKQYQLRGMATLEGYREQKAGSTLIRHAEELLRKKGADLLWCNARTSASGYYKKLGFSEQGGVYDIPPVGPHILMYKKLT
modifications: 6_6D5
notes: GAT polypeptide
As to B9, the Kcat was determined as 0.922 s⁻¹ and the Km was 1000 µM.

B10: SEQ ID NO: 407: GAT polypeptide (protein)
chain: MIEVKPINAEDTYEIRHRILRPNQPLEACMYETDLLGGTFHLGGYYRGKLISIASFHQAEHPELEGQKQYQLRGMATLEEYREQKAGSTLIRHAEELLRKKGADLLWCNARTSASGYYKKLGFSEQGEVYDIPPIGPHILMYKKLT
modifications: 6_5D11
notes: GAT polypeptide
In the case of B10, the Kcat was found to be 0.253 s⁻¹ and the Km was determined as 1000 µM.

B11: SEQ ID NO: 417: GAT polypeptide (protein)
chain: MIEVKPINAEDTYEIRHRILRPNQPLEACMYETDLLGGTFHLGGYYRGKLISIASFHQAEHSELEGQKQYQLRGMATLEGYREQKAGSTLIRHAEELLRKKGADLLWCNARTSASGYYKKLGFSEQGGVYDIPPVGPHILMYKKLT
modifications: 7_2A11
notes: GAT polypeptide
Take B11: the Kcat was 0.78 s⁻¹ and the Km was 1100 µM.

B12: SEQ ID NO: 272: GAT polypeptide (protein)
chain: MIEVKPINAEDTYEIRHRILRPNQPLEACKYETDLLGGTFHLGGYYRGKLVSIASFHQAEHSELEGQKQYQLRGMATLEEYREQKAGSTLIRHAEELLRKKGADLLWCNARTSASGYYKKLGFSEQGEVYDIPPVGPHILMYKKLT
modifications: 10_17F6
notes: GAT polypeptide
Consider B12, for which the Kcat was determined as 0.798 s⁻¹ and the Km was 1400 µM.

B13: SEQ ID NO: 412: GAT polypeptide (protein)
chain: MIEVKPINAEDTYEIRHRILRPNQPLEACMYETDLLGGTFHLGGYYRGKLISIASFHQAEHPELEGQKQYQLRGMATLEGYREQKAGSTLIRHAEELLRKKGADLLWCNARTSASGYYKKLGFSEQGGVYDIPPVGPHILMYKKLT
modifications: 6_8H3
notes: GAT polypeptide
B13: the Kcat is 0.745 s⁻¹ and the Michaelis constant (Km) stood at 1000 µM.

B14: SEQ ID NO: 418: GAT polypeptide (protein)
chain: MIEVKPINAEDTYEIRHRILRPNQPLEACKYETDLLGGTFHLGGYYRGKLISIASFHQAEHPELEGQKQYQLRGMATLEGYREQKAGSTLIRHAEELLRKKGADLLWCNARTSASGYYKKLGFSEQGEVYDIPPVGPHILMYKKLT
modifications: 7_2D7
notes: GAT polypeptide
Consider B14, for which the Kcat was 0.915 s⁻¹ and the Km is 1100 µM.

B15: SEQ ID NO: 409: GAT polypeptide (protein)
chain: MIEVKPINAEDTYEIRHRILRPNQPLEACMYETDLLGGTFHLGGYYRGKLISIASFHQAEHSELEGQKQYQLRGMATLEEYREQKAGSTLIRHAEELLRKKGADLLWCNARISASGYYKKLGFSEQGGVYDIPPVGPHILMYKKLT
modifications: 6_5G9
notes: GAT polypeptide
As to B15, the Kcat is 0.597 s⁻¹ and the Michaelis constant (Km) is 1400 µM.

B16: SEQ ID NO: 408: GAT polypeptide (protein)
chain: MIEVKPINAEDTYEIRHRILRPNQPLEACMYETDLLGGTFHLGGYYRGKLISIASFHQAEHPELEGQKQYQLRGMATLEEYREQKAGSTLIRHAEELLRKKGADLLWCNARTSASGYYKKLGFSEQGEVHDIPPVGPHILMYKKLT
modifications: 6_5F11
notes: GAT polypeptide
Regarding B16, the Kcat turned out to be 0.668 s⁻¹ and the Michaelis constant (Km) turned out to be 1900 µM.

B17: SEQ ID NO: 405: GAT polypeptide (protein)
chain: MIEVKPINAEDTYEIRHRILRPNQPLEACMYETDLLGGTFHLGGYYRGKLISIASFHQAEHPELEGQKQYQLRGMATLEGYREQKAGSTLIRHAEELLRKKGADLLWCNARTSASGYYKKLGFSEQGEVYDIPPVGPHILMYKKLT
modifications: 6_4A10
notes: GAT polypeptide
Turning to B17, the Kcat turned out to be 0.917 s⁻¹ and the Km was 1100 µM.

B18: SEQ ID NO: 415: GAT polypeptide (protein)
chain: MIEVKPINAEDTYEIRHRILRPNQPLEACMYETDLLGGTFHLGGYYRGKLISIASFHQAEHPELEGQKQYQLRGMATLEEYREQKAGSTLIRHAEELLRKKGADLLWCNARTSASGYYKKLGFSEQGGVYDIPPIGPHILMYKKLT
modifications: 7_1C4
notes: GAT polypeptide
As to B18, the Kcat amounted to 0.29 s⁻¹ and the Km came to 1100 µM.

B19: SEQ ID NO: 271: GAT polypeptide (protein)
chain: MIEVKPINAEDTYEIRHRILRPNQPLEACKYETDLLGGTFHLGGYYRGKLISIASFHQAEHPELEGQKQYQLRGMATLEGYREQKAGSTLIRHAEELLRKKGADLLWCNARTSASGYYKKLGFSEQGEVYDTPPVGPHILMYKKLT
modifications: 10_17D1
notes: GAT polypeptide
For B19, the Kcat was found to be 2.937 s⁻¹ and the Michaelis constant (Km) worked out at 2200 µM.

B20: SEQ ID NO: 406: GAT polypeptide (protein)
chain: MIEVKPINAEDTYEIRHRVLRPNQPLEACMYETDLLGGTFHLGGYYRGKLIGIASFHQAEHPELEGQKQYQLRGMATLEGYREQKAGSTLIRHAEELLRKKGADLLWCNARTSASGYYEKLGFSGQGEVYDIPPIGPHILMYKKLT
modifications: 6_4B1
notes: GAT polypeptide
For the molecule B20, the Kcat came out at 0.45 s⁻¹ and the Km was determined as 1000 µM.
